Laboratory results reported in paper PMC10552758, “Identification and characterization of a novel β-lactamase gene, blaAMZ–1, from Achromobacter mucicolens” (Frontiers in Microbiology, 2023).

Key:
AMZ-1 = target: T1, AMZ-1 (Achromobacter mucicolens, UniProt Z9OND0BR39); test: nitrocefin hydrolysis, UV-VIS spectrophotometry; assay type: biochemical
T1 construct: ORF without signal peptide (cleavage 26/27) in pColdI, E. coli BL21(DE3); His-tag removed with enterokinase

[1] = tested on: CC(=O)OCC1=C(C(=O)O)N2C(=O)[C@@H](NC(=O)Cc3cccs3)[C@H]2SC1; test: UV-VIS hydrolysis, initial rates, Michaelis-Menten fit; assay type: biochemical, Achromobacter mucicolens; conditions: 10 mM phosphate pH 7.0, 37°C
From the text: (§1) UV-VIS hydrolysis, initial rates, Michaelis-Menten fit on AMZ-1

[2] = tested on: CC1(C)S[C@@H]2[C@H](NC(=O)Cc3ccccc3)C(=O)N2[C@H]1C(=O)O; test: as above; assay type: biochemical, Achromobacter mucicolens; conditions: 10 mM phosphate pH 7.0, 37°C
From the text: as §1

[3] = tested on: CC1(C)S[C@@H]2[C@H](NC(=O)[C@H](N)c3ccc(O)cc3)C(=O)N2[C@H]1C(=O)O; test: as above; assay type: biochemical, Achromobacter mucicolens; conditions: 10 mM phosphate pH 7.0, 37°C
From the text: as §1

[4] = tested on: CO[C@@]1(NC(=O)Cc2cccs2)C(=O)N2C(C(=O)O)=C(COC(N)=O)CS[C@@H]21; test: as above; assay type: biochemical, Achromobacter mucicolens; conditions: 10 mM phosphate pH 7.0, 37°C
From the text: as §1

NC(=O)[C@@H]1CC[C@@H]2CN1C(=O)N2OS(=O)(=O)O [avibactam]
IC50 (AMZ-1): 0.00082 µM

C[C@]1(Cn2ccnn2)[C@H](C(=O)O)N2C(=O)C[C@H]2S1(=O)=O [tazobactam]
IC50 (AMZ-1): 1090 µM

AMZ-1 (Achromobacter mucicolens)
Km [1]: 564.23 ± 56.35 µM | kcat [1]: 5.88 ± 0.39 s⁻¹ | kcat/Km [1]: 10400 ± 40 M⁻¹ s⁻¹ | Km [2]: 108.84 ± 8.12 µM | kcat [2]: 3.93 ± 0.13 s⁻¹ | kcat/Km [2]: 36300 ± 150 M⁻¹ s⁻¹ | Km [3]: 14.65 ± 1.274 µM | kcat [3]: 0.0947 ± 0.005 s⁻¹ | kcat/Km [3]: 6780 ± 1650 M⁻¹ s⁻¹ | Km [4]: 18.16 ± 3.88 µM | kcat [4]: 0.0805 ± 0.0137 s⁻¹ | kcat/Km [4]: 4540 ± 660 M⁻¹ s⁻¹
